Data on three molecules can be found in article PMC4164784, “4E-BPs require non-canonical 4E-binding motifs and a lateral surface of eIF4E to repress translation” (Nature Communications, 2014).

The subject of one test is endogenous eIF4E. Briefly: Coimmunoprecipitation / m7GTP pull-down with endogenous eIF4E in S2 cell lysates. In kind it is cell-based, Drosophila melanogaster. To be noted: western blot. On the procedure:
The coimmunoprecipitations assays were performed as previously described. For the pull downs using m^7GTP beads, 25 μl of immobilized γ-aminophenyl-m^7GTP (C10-spacer—Jena Bioscience) beads was added to the cell lysates and the mixtures were rotated for 1 h at 4 °C. The beads were washed three times with NET buffer (50 mM Tris (pH 7.4), 150 mM NaCl, 1 mM EDTA and 0.1% Triton X-100). The bound proteins were eluted with 2 × SDS–polyacrylamide gel electrophoresis (SDS–PAGE) sample buffer and analyzed by western blotting (WB). All of the WB experiments were developed with the ECL western blotting detection system (GE Healthcare) as recommended by the manufacturer. The antibodies used in this study are listed in Supplementary Table 2.
Thor and 4E-T) or HA-eIF4G and endogenous eIF4E in S2 cell lysates. The proteins were immunoprecipitated using a polyclonal anti-eIF4E antibody (α-4E). The pre-immune (Pre-I) serum and an HA-tagged version of MBP served as negative controls. The inputs (1%) and immunoprecipitates (10%) were analyzed by western blotting using anti-HA and anti-eIF4E antibodies. (b,c) The interaction of HA-tagged full length 4E-BPs (CUP, Thor and 4E-T) and eIF4G with endogenous eIF4E was analyzed by coimmunoprecipitation using anti-HA antibodies (b) or by pull-down using m7GTP-Sepharose beads (c). HA-MBP served as a negative control. The inputs (10%) and immunoprecipitates (30%) were analyzed by western blotting using anti-HA and anti-eIF4E antibodies. (d) Western blot showing the interaction of HA-Thor (full-length either wild-type or mutants) with endogenous eIF4E in S2 cells. The proteins were immunoprecipitated using anti-HA antibodies and analyzed as described in (b,c). (e) Western blot showing the interaction of HA-4E-T (residues 1–511, wild-type or mutants) with endogenous eIF4E. The proteins were immunoprecipitated using anti-HA antibodies and analyzed as described in (b,c). The size markers (kDa) are shown to the right of each panel. Mutants are described in Supplementary Table 1.
(Immunoblotting shows a protein as a band on a membrane.)

In test [1] the target is T1, eIF4E–eIF4G complex (eIF4E WT; eIF4G residues 578–650) (Drosophila melanogaster, UniProt P48598).
T1 construct: full-length eIF4E (WT or the II-AA mutant) containing an N-terminal SNH-tag was coexpressed; made in house; host or cells: E. coli BL21 Star (DE3), coexpression
T1 sequence (P48598 1-248 isoform P48598-2): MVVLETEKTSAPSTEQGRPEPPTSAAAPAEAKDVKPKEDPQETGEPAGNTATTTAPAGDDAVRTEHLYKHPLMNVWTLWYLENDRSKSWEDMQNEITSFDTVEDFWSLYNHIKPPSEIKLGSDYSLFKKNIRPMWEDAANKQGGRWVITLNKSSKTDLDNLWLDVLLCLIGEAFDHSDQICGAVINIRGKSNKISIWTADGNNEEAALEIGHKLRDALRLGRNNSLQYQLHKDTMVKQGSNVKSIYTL
Briefly: Competition assay, displacement of GST-eIF4G from preassembled eIF4E (WT)–eIF4G complexes. The test is classed as biochemical. The settings on record: Fig. 5a,c; fivefold molar excess of MBP-tagged competitor, 30 min at 4 °C, m7GTP or Strep-Tactin pull down. As for the experimental part:
For the competition assays shown in Figs 5a,c and 6a,b, complexes containing SHN- or MBP-tagged eIF4E (WT or II-AA mutant) bound to GST-eIF4G (residues 578–650), GST-Thor (full length), GST-4E-T (residues 1–58) or GST-CUP (311–440) were obtained by coexpressing the corresponding proteins in E. coli BL21 (DE3) STAR cells (30 ml culture). The cells were resuspended in lysis buffer (5 ml) that was supplemented with EDTA-free protease inhibitor (Roche) and 1 mg ml^−1 lysozyme and lysed by sonication. The cleared lysates were incubated with 400 μl of Protino Glutathione Agarose 4B (Macherey-Nagel) for 1 h. The beads were washed three times with lysis buffer, and the proteins were eluted after 10 min of incubation with lysis buffer containing 25 mM L-glutathione. The protein complexes were stored at −20 °C or used in competition assays.
The purified recombinant complexes were mixed with excess amounts of the indicated purified competitor proteins (Fig. 5c) or with bacterial lysates expressing the competitor proteins (Figs 5a and 6) and incubated for 30 min at 4 °C. After incubation, 20 μl of immobilized γ-Aminophenyl-m^7GTP or Strep-Tactin Sepharose (IBA), were added to the samples and incubated for another 40 min at 4 °C. The beads were washed three times with lysis buffer and eluted with lysis buffer containing 2.5 mM desthiobiotin (Strep-Tactin Sepharose) or with 20 μl of SDS–PAGE loading buffer (Aminophenyl-m^7GTP beads). The proteins were analyzed by 10–15% SDS–PAGE followed by staining with Coomassie blue staining. […]

Another test deals with eIF4E (full length, WT). Briefly: GST/MBP pull-down of full-length WT eIF4E, coexpressed in E. coli. The settings on record: recombinant CUP (311–440), Thor (full length), 4E-T (1–58) or eIF4G (578–650), WT or mutant, SDS–PAGE. The test is classed as binding, Drosophila melanogaster. As for the experimental part: For the pull-down assays shown in Fig. 3 and Supplementary Fig. 6a, the full-length His6- or SHN-tagged eIF4E (WT or II-AA mutant) was coexpressed with GST or MBP-tagged protein fragments, including CUP (residues 311–440), Thor (full length), 4E-T (residues 1–58) or eIF4G (residues 578–650) in E. coli BL21 (DE3) STAR cells in autoinducing medium[44] overnight at 20 °C. The cells were resuspended in lysis buffer (20 mM Tris–HCl (pH 7.5), 100 mM NaCl, 1 mM DTT) supplemented with EDTA-free protease inhibitor (Roche) and lysed by sonication. The cleared lysates were incubated for 1 h with 20 μl of Protino Glutathione Agarose 4B beads (Macherey-Nagel) or amylose resin (New England Biolabs). The beads were washed three times with lysis buffer, and the bound proteins were eluted with lysis buffer containing 25 mM L-glutathione or 25 mM maltose for 15 min. The proteins were analyzed by 10–15% SDS–PAGE followed by Coomassie blue staining.

The target of test [2] is T2, SHN-eIF4E (full length, WT) (Drosophila melanogaster, UniProt P48598-2 1-248).
T2 construct: eIF4E, Drosophila melanogaster; also called SHN-tagged eIF4E; SNH-tagged eIF4E; not shown: Strep-NusA-His (SHN), N-terminal, kept
T2 sequence (looked up): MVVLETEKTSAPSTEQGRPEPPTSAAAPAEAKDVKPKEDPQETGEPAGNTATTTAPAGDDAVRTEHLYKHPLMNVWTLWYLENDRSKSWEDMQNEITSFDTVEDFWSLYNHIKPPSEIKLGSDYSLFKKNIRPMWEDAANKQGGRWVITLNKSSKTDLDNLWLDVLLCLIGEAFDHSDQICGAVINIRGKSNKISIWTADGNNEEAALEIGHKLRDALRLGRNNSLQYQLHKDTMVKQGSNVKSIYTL
Nature of the test: pull-down; preassembled complexes of SHN-eIF4E (WT or II-AA) with GST-eIF4G, GST-CUP, GST-Thor or GST-4E-T (coexpressed, purified on glutathione agarose) recovered on Strep-Tactin beads. The settings on record: both partners purified.

Test [3] concerns the target T3, SHN-eIF4E (full length, II-AA mutant) (Drosophila melanogaster, UniProt P48598-2 1-248, Ile96 to Ala (II-AA) | Ile112 to Ala (II-AA)).
T3 construct: eIF4E, Drosophila melanogaster; also called SHN-tagged eIF4E II-AA; not shown: Strep-NusA-His (SHN), N-terminal, kept
T3 sequence (looked up): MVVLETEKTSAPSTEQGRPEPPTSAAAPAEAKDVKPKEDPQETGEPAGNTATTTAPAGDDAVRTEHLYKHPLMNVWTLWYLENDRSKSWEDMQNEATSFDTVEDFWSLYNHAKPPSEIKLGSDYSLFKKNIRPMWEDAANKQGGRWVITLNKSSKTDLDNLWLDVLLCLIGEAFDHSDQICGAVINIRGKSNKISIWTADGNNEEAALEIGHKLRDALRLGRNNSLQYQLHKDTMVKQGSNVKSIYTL
Described as above. To be noted: both partners purified.

The target in test [4] is T2, SHN-eIF4E (full length, WT). Nature of the test: pull-down; competition: purified SHN-eIF4E–GST-eIF4G complex with fivefold molar excess of purified MBP-Thor, 30 min at 4 °C; Strep-Tactin beads. To be noted: both partners purified.

“Also recorded” adds a separate entry of the source.

B1: Thor ΔNC: Thor ∆76–84, non-canonical motif deleted (protein)
chain: MSASPTARQAITQALPMITRKVVISDPIQMPEVYSSTPGGTLYSTTPGGTKLIYERAFMKNLRGSPLSQTPPSNVRTPFRKCVPVPTELIKQTKSLKIEDQEQFQLDL
modifications: left off: HA (λN-HA, from the vector pAc5.1-λN-HA), end not stated, kept | V5, end not stated, state not stated
notes: Thor ∆76–84, non-canonical motif deleted
Turning to B1, the “interaction with endogenous eIF4E (in words)” value in the test on endogenous eIF4E is on record as “abolished the interaction with eIF4E”. For the same molecule, the “competition with eIF4G for eIF4E WT (in words)” value in test [1] is on record as “abolish its ability to compete with eIF4G”. Also, in the test on eIF4E (full length, WT), the “binding to WT eIF4E (in words)” value is “The results obtained for the Thor NC* and C+NC* mutants were confirmed; also recorded: interacted with eIF4E”.

B2: GST-CUP (residues 311–440) (domain or fragment, Drosophila melanogaster, UniProt Q9VMA3 311-440, looked up)
chain: VRPTTAPVVSSKPVKSYTRSRLMDIRNGMFNALMHRSKESFVMPRIATCDDIELEGRLRRMNIWRTSDGTRFRTRSTTANLNMNNNNNNECMPAFFKNKNKPNLISDESIIQSQPPQPQTEFQDPAIVNQ
notes: CUP, Drosophila melanogaster, residues 311–440; may be the same construct as m25; source: E. coli BL21 (DE3) STAR, coexpressed with SHN-eIF4E, complex purified on glutathione agarose
Regarding B2, the binding result in test [2] and in test [3] was “binds” in each case.

B3: MBP-Thor (full length, WT) (natural protein, Drosophila melanogaster, UniProt Q9XZ56 1-117, looked up)
chain: MSASPTARQAITQALPMITRKVVISDPIQMPEVYSSTPGGTLYSTTPGGTKLIYERAFMKNLRGSPLSQTPPSNVPSCLLRGTPRTPFRKCVPVPTELIKQTKSLKIEDQEQFQLDL
notes: Thor, Drosophila melanogaster; not shown: MBP, N-terminal, kept
For the molecule B3, the binding result in test [4] is given as “binds”.
